{"source": "patent US10391180B2", "about": "“Self-assembling complex for targeting chemical agents to cells” (CEDARS-SINAI MEDICAL CENTER, priority 2007, dated 2019)", "molecules": {"B1": {"name": "HerDox: non-covalent complex of HerPBK10, a small double-stranded nucleic acid and intercalated Dox (conjugate)", "chain": "LPPRLKEMKSQESAAGSKLVLRCETSSEYSSLRFKWFKNGNELNRKNKPQNIKIQKKPGKSELRINKASLADSGEYMCKVISKLGNDSASANITIVESNEIITGMPASTEGAYVSSESPIRISVSTEGANTSSSTSTSTTGTSHLVKCAEKEKTFCVNGGECFMVKDLSNPSRYLCKCQPGFTGARCTENVPMKVQNQEKAEELYMRRAAMYEEGPPPSYESVVSAAPVAAALGSPFDAPLDPPFVPPRYLRPTGGRNSIRYSELAPLFDTTRVYLVDNKSTDVASLNYQNDHSNFLTTVIQNNDYSPGEASTQTINLDDRSHWGGDLKTILHTNMPNVNEFMFTNKFKARVMVSRLPTKDNQVELKYEWVEFTLPEGNYSETMTIDLMNNAIVEHYLKVGRQNGVLESDIGVKFDTRNFRLGFDPVTGLVMPGVYTNEAFHPDIILLPGCGVDFTHSRLSNLLGIRKRQPFQEGFRITYDDLEGGNIPALLDVDAYQASLKDDTEQGGGGAGGSNSSGSGAEENSNAAAAAMQPVEDMNDHAIRGDTFATRAEEKRAEAEAAAEAAAPAAQPEVEKPQKKPVIKPLTEDSKKRSYNLISNDSTFTQYRSWYLAYNYGDPQTGIRSWTLLCTPDVTCGSEQVYWSLPDMMQDPVTFRSTRQISNFPVVGAELLPVHSKSFYNDQAVYSQLIRQFTSLTHVFNRFPENQILARPPAPTITTVSENVPALTDHGTLPLRNSIGGVQRVTITDARRRTCPYVYKALGIVSPRVLSSRTFKKKKKKKKKK", "modifications": "left off: small tags and cut ends", "notes": "non-covalent complex of HerPBK10, a small double-stranded nucleic acid and intercalated Dox"}}, "key": {"[1]": {"assay": "HerDox stability in cell culture media, agarose gel", "assay_type": "in vitro ADME", "details": "serum-containing culture media, 37° C.", "method": "FIGS. 9 (A)-(C) illustrates targeting in a mixed cell culture. As illustrated in FIG. 10 (A), equal numbers of MDA-MB-435 and GFP(+) MDA-MB-231 cells were treated with Dox alone (0.5 uM), Her-Dox (containing 0.5 uM Dox), or HerPBK10 (1.2 ug/well, equivalent to HerPBK10 in HerDox). Wells were assayed for GFP fluorescence (to determine relative MDA-MB-231 number) and crystal violet staining (to determine total cell number). As illustrated in FIG. 9 (B), cell survival was determined by calculating the relative doubling time (DT) of experimental (exp) cells normalized by control (con) cells based on the crystal violet stains (total cells) and GFP fluorescence (MDA-MB-231 cells). The DT of MDA-MB-435 was determined by subtracting the DT of MDA-MB-231 from the total cell DT. Relative survival is shown for Day 2 of treatment. As illustrated in FIG. 9 (C), there is stability in cell culture. Aliquots of culture media containing HerDox (after incubation for the indicated times at 37° C.) were electrophoresed on a 2% agarose gel. HerDox incubated at 37° C. in HEPES-buffered saline, lacking serum, was processed in parallel. Dox fluorescence was visualized by UV excitation. Free Dox (Dox alone) is not retained in the gel whereas Dox incorporated in HerDox is. […]"}, "[2]": {"test_system": "U251 human glioma cells", "assay": "Toxicity to glioma cells, cell counting", "assay_type": "cell-based", "details": "4 hours, counted after four days", "method": "FIGS. 20 (A)-(B) illustrates HerDox is toxic to glioma cells. FIG. 20 (A) depicts HER immunofluorescence on U251 human glioma cells. Images were captured using laser scanning fluorescence confocal microscopy. FIG. 20 (B) depicts a graph of HerDox vs. Dox toxicity to U251 cells. Significant differences were determined by 2-tailed tests.\nU251 cells growing in dishes were incubated with either HerDox or Dox (at either 0.5 uM or 1 uM) in the culture medium for 4 hours at 37° C., 5% C02, after which fresh complete medium was added to increase the final culture volume approximately four-fold, and the cells maintained at 37° C., 5% C02 for four days. Cells were trypsinized and counted on the last day."}, "[3]": {"test_system": "SKBR3, MDA-MB-435, MDA-MB-453, HeLa, MDA-MB-231", "assay": "Cytotoxicity dose curves on lines displaying differential HER2 (CD50)", "assay_type": "cell-based", "details": "range of HerDox doses", "method": "FIGS. 17 (A)-(B) illustrates relative cell surface HER subunit levels and cytotoxicity on cell types. FIG. 17 (A) depicts a graph of relative cell surface HER subunit levels as measured by ELISA. Cells were incubated with anti-HER subunit antibodies followed by HRP-conjugated secondary antibodies using standard procedures. Relative cell numbers were measured by crystal violet staining and quantified by measuring crystal violet absorbance at 590 nm. Relative subunit levels are reported as the ELISA signal of each cell population normalized by the relative cell number, or Abs 450 run/590 nm. FIG. 17 (B) depicts toxicity to cells displaying differential HER2. Cytotoxicities from a range of HerDox doses were assessed on each cell line by metabolic assay and confirmed by crystal violet stain. CD50 values shown in log scale were determined by non-linear regression analyses of HerDox dose curves using a scientific graphing program and confirmed using a calculator. The relative HER2 level of each cell line is shown next to each CD50 value.\nThe inventors measured cell surface levels of HER subunits on various cell lines and types described herein, as previously described levels may not reflect the actual levels in the available cells used. The inventors acquired the indicated cell lines from ATCC and the NIH/NCI and profiled these with respect to HER subunit levels (FIG. 17 (A)). […]"}}}
{"molecule": "B1", "values": [{"measurement": "loss of Dox fluorescence from conjugate over time", "setting": "[1]", "value": "no such loss from HerDox is detectable"}, {"measurement": "toxicity relative to the equivalent concentration of Dox", "setting": "[2]; 0.5 uM or 1 uM", "value": "8-10 times"}, {"measurement": "less HerDox eliciting the same toxicity as Dox", "setting": "[2]", "value": 10, "unit": "×"}, {"measurement": "relation of CD50 to cell surface HER2 level", "setting": "[3]", "value": "inversely correlates with cell surface HER2 level"}]}
